{
  "source": "patent US20070295907A1",
  "biological_target": "GFP-TIpA fusion protein (Salmonella typhimurium) [GFP: P42212]",
  "experiment": "cell-based or functional assay",
  "data": [
    {"substance": "GFP-TIpA fusion protein (from UniProt P42212 1-238)", "values": [
      {"measurement": "fluorescent intensity when excited at 395 nm, temperature raised from 10° C. to 55° C.", "value": 30, "unit": "%"}
    ]}
  ]
}
